Test results taken from PMC3338420.
pKd: −log10 of the molar value.

What was measured:
SNX18 (Homo sapiens) = SNX18 (Homo sapiens) (UniProt Q96RF0); conditions: cited from earlier work
[1] = molecular target: Rab6a/RPRdel complex (Rab6a with RUN1-PLAT-RUN2 of DENND5A, loop 813–835 deleted) (human | mouse) (UniProt P20340); experiment: SPR; Biacore X-100, 293 K; Rab6/RPRdel or Rab6/RPdel amine-coupled to a CM5 chip (about 2,500 RU); SNX1 fragments as analytes, 0.2 to 40 µM; 100 mM NaCl, 1 mM DTT, 0.005% P20, 10 mM HEPES pH 8.0; multi-cycle; equilibrium KD from a 1:1 model
Chain of UniProt P20340 (P20340 8-195 Q72L, chain 1 of 2): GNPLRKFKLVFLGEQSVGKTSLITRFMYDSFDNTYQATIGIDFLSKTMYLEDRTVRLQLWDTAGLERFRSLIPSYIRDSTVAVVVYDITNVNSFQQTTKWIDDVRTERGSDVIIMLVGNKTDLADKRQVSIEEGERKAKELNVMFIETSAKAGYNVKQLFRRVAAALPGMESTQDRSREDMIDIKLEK
Chain of UniProt P20340 (Q6PAL8 other isoform, or with tags, fused parts or gaps, chain 2 of 2, further chain): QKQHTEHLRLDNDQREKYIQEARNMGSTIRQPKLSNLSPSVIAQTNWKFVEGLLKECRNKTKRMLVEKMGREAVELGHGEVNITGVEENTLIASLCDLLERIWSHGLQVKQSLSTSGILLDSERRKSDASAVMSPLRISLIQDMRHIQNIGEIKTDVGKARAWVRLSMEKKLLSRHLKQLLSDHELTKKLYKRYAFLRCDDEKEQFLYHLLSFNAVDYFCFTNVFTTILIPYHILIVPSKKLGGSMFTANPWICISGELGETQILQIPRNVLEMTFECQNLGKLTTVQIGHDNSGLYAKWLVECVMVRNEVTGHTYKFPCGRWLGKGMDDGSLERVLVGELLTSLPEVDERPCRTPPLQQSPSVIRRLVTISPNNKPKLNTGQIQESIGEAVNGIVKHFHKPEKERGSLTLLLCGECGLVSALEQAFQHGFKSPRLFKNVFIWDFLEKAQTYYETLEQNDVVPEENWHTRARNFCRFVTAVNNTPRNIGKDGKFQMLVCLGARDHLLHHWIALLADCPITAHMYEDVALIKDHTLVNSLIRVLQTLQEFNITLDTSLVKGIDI

Chain of UniProt Q96RF0 (Q96RF0 whole entry, the tested form may be a part): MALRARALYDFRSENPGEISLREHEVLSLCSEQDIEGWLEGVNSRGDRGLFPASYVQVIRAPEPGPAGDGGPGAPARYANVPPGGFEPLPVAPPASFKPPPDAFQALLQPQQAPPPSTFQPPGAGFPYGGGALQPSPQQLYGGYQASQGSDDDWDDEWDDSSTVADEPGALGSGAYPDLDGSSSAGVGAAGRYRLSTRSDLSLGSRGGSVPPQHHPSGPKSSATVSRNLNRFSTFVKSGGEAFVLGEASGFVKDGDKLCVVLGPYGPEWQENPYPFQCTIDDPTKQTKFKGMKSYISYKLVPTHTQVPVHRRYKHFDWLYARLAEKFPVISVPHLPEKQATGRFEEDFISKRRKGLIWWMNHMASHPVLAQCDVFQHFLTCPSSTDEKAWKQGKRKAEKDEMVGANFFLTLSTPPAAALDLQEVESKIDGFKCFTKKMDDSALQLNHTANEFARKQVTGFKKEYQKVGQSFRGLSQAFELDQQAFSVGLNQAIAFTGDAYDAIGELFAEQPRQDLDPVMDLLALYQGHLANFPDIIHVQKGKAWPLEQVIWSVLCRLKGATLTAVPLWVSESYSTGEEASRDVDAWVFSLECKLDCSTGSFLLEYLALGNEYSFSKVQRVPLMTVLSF

pKd [1]	Substance	pKd (SNX18 (Homo sapiens))
	FIP5 (from UniProt Q9BXF6)	5.80
5.77	SNX1 SNX-PX (9–303) (from UniProt Q9WV80 9-303) (domain or fragment)	
